Molecular target: T1, Estrogen receptor alpha (ERα) (UniProt P03372 1-595, limits assumed)
T1 sequence (looked up): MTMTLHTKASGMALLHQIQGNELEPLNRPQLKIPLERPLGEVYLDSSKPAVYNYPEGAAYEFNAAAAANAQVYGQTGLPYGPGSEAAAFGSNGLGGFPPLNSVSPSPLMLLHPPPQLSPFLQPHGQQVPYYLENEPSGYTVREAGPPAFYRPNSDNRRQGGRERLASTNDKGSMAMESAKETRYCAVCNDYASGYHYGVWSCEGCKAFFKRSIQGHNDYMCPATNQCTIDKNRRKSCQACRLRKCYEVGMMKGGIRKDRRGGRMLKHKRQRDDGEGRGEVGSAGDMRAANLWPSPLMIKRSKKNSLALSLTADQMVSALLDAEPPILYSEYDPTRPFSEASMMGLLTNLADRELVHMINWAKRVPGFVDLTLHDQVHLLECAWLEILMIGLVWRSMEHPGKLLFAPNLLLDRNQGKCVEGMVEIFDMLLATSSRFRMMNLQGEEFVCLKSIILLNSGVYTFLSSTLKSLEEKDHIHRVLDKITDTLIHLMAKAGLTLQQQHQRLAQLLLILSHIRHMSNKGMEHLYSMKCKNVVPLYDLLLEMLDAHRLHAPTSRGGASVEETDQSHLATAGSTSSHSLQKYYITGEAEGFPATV
Assay: cell-based or functional assay

B1: WBP2 Y192-231F phospho-defective double mutant, V5-tagged (other, not shown: small tags and cut ends)
chain: MALNKNHSEGGGVIVNNTESILMSYDHVELTFNDMKNVPEAFKGTKKGTVYLTPYRVIFLSKGKDAMQSFMMPFYLMKDCEIKQPVFGANYIKGTVKAEAGGGWEGSASYKLTFTAGGAIEFGQRMLQVASQASRGEVPSGAYGYSYMPSGAYVYPPPVANGMYPCPPGYPYPPPPPEFYPGPPMMDGAMGFVQPPPPPYPGPMEPPVSGPDVPSTPAAEAKAAEAAASAFYNPGNPHNVYMPTSQPPPPPYYPPEDKKTQ
ERα reporter activity (ERE-luciferase), loss of coactivator activity relative to vector and compared to WBP2: ~60%
